Patent US20220220218A1 (JIANGSU HENGRUI MEDICINE, published 2022)

T1: human CD73 on tumor cell line MDA-MB-231 that highly expresses human CD73 (human, UniProt P21589 27-549)
T1 sequence (looked up): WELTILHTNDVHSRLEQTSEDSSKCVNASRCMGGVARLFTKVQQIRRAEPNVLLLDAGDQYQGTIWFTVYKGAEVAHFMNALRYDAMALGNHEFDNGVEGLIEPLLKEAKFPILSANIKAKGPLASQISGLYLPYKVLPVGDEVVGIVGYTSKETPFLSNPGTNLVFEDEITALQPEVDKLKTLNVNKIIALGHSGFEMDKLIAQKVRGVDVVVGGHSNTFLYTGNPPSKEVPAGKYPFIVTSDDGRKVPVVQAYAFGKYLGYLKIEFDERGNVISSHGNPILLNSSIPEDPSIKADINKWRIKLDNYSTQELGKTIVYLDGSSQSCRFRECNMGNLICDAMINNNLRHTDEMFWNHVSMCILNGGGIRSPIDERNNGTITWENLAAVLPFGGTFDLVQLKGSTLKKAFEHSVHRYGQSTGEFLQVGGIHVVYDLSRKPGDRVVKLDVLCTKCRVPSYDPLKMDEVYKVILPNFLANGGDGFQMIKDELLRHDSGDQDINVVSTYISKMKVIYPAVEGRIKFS

T2: cynomolgus monkey CD73/NT5E protein (His tag), Sino Biological Cat. No. 90192-C08H (cynomolgus monkey, UniProt A0A2K5V5U7 27-547)
T2 construct: also called cynomolgus monkey CD73 protein; cynoCD73; not shown: His tag
T2 sequence: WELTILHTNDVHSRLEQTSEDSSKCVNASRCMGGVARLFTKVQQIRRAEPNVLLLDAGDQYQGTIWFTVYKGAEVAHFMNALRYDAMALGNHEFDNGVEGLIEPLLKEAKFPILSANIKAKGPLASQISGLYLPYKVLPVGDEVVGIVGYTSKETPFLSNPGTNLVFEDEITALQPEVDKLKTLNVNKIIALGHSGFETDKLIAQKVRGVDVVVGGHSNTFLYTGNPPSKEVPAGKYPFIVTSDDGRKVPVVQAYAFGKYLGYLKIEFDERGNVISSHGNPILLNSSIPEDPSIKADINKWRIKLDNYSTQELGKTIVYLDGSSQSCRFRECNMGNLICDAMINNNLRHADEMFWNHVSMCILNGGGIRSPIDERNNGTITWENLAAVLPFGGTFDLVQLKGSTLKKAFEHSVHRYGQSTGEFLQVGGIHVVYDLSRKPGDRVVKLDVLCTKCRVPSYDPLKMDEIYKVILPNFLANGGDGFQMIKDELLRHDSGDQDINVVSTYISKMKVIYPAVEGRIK


Experiments:
[1] = target: T1, human CD73 on tumor cell line …; experiment: cell-based or functional assay
[2] = target: T1, human CD73 on tumor cell line …; experiment: cell ELISA on fixed MDA-MB-231 cells
Method: The MDA-MB-231 cells were directly coated onto a 96-well microtiter plate. The signal strength after the addition of the antibody was used to determine the binding activity of the antibody to MDA-MB-231 cells. The specific experimental procedures were as follows:
MDA-MB-231 cells (ATCC, Cat No HTB-26) were seeded in the 96-well plate (Corning, Cat No. CLS3599-100EA) at a density of 6×10⁵/ml, 100 μl/well, and cultured overnight. The supernatant was discarded, the plate was washed with PBS for three times, 100 μl/well of cell immune fixed solution (Beyotime, Cat No. P0098) was added and fixed for half an hour at room temperature, and the plate washed with PBS for four times. The liquid was discarded, 250 μl/well blocking solution (5% skim milk diluted in PBS) was added, and incubated in an incubator at 37° C. for 3 hours. After the blocking was finished, the blocking solution was discarded, the plate was washed for 5 times with PBST buffer, 50 μl/well of various concentrations of each of the test antibodies were added, and incubated in an incubator at 37° C. for 1 hour. After the incubation was finished, the plate was washed for 5 times with PBST, 50 μl/well of HRP-labeled goat anti-mouse secondary antibody (Jackson Immuno Research, Cat No. 115-035-003) or goat anti-human secondary antibody (Jackson Immuno Research, Cat No. 109-035-003) diluted with sample diluent was added, and incubated at 37° C. for 1 hour. The plate was washed for 5 times with PBST, 50 μl/well of TMB chromogenic substrate (KPL, Cat No. 52-00-03) was added, incubated at room temperature for 5-15 min, and 50 μl/well of 1M H₂SO₄ was added to stop the reaction. The absorbance value was read by a microplate reader (Molecular Devices, VERSA max) at a wavelength of 450 nm, and the data was analyzed with GraphPad Prism 5. The binding of anti-CD73 antibody to MDA-MB-231 cells over-expressing CD73 was calculated as EC50 value.

[3] = target: T2, cynomolgus monkey CD73/NT5E protein …; experiment: SPR Biacore T200; antibody captured on Protein A chip, cynoCD73 in flow; 1:1 Langmuir
Excerpt: In this experiment, Biacore instrument was used to determine the affinity of the humanized anti-CD73 antibodies to be tested with human CD73 (huCD73) and monkey CD73 (cynoCD73).
A certain amount of test antibody was affinity-captured with Protein A biosensing chip (Cat. #29127556, GE), and then a certain concentration of human or monkey CD73 antigen was allowed to flow through the surface of the chip. The reaction signals were detected in real time with Biacore instrument (Biacore T200, GE) to generate a binding and dissociation curve. At the end of each cycle, after the dissociation was completed, the biosensor chip was washed and regenerated with Glycine-HCl, pH1.5 (Cat. #BR-1003-54, GE). The running buffer for the assay was 1×HBS-EP buffer solution (Cat. #BR-1001-88, GE).
The data obtained from the experiment was fitted against (1:1) Langmuir model using GE Biacore T200 Evaluation version 3.0 software, and the affinity values were obtained, as shown in Table 12 and Table 13 for details.

Binder | IC50 (nM) in the assay showing the inhibition of enzyme activity in MDA-MB-231 cell [1] [nM] | EC50 [2] [nM] | Kd [3] [nM] | koff [3] [s⁻¹] | kon [3] [M⁻¹ s⁻¹]
Hab110.21 (antibody, human IgG1, kappa, V domains shown, also called humanized antibody of mab110) VH: EVQLVQSGAEVKKPGASVKVSCKASGYTFTSYTMHWVRQAPGQRLEWMGYINPNSFYIEYNQKFKDRVTITRDTSASTAYMELSSLRSEDTAVYYCARGDYDLFYDMDNWGQGTTVTVSS VL: DIQMTQSPSSLSASVGDRVTITCRASQDIGNSLNWLQQKPGKAIKRLIYATFRLDSGVPSRFSGSRSGTEYTLTISSLQPEDFATYYCQQYASFPWTFGGGTKVEIKR | 0.329 | 0.056 | 0.0489 | 3.45e-05 | 704000
Hab127.31d (antibody, human IgG1, kappa, V domains shown, also called humanized antibody of mab127) VH: EVQLVQSGAEVKKPGASVKVSCKASGYTFTAYFMNWVRQAPGQGLEWMGRIYHNKGDTFYSQKFKGRVTMTVDKSTSTVYMELSSLRSEDTAVYYCATSYVGDWGQGTTVTVSS VL: DIQMTQSPSSLSASVGDRVTITCRASQDIGDSLNWLQQKPGGALKRLIYATSSLDSGVPSRFSGSGSGTEYTLTISSLQPEDFATYYCLQYASFPWTFGGGTKVEIKR | 0.505 | 0.072 | 0.0699 | 1.86e-05 | 266000
Hab108.64 (antibody, human IgG1, kappa, V domains shown, also called humanized antibody of mab108) VH: EVTLKQSGPGLVKPTETLTLTCTVSGFSLSSYGIQWVRQPPGKGLEWLGVIWSGGSADYNAAFISRLTISKDTSKSQVVLTMTNMDPVDTATYYCAGQYGSVWGQGTLVTVSS VL: DIQMTQSPSSLSASVGDRVTITCRASQDIGDRLNWLQQKPGGAIKRLIYATSSLDSGVPKRFSGSGSGTEYTLTISSLQPEDFATYYCLQYAGSWTFGGGTKVEIKR | 0.53 | 0.062 | 0.166 | 4.24e-05 | 256000
CPX006 (antibody CPX-006 disclosed in patent application WO2018013611) (antibody, V domains shown) VH: QVQLVQSGAEVEKPGASVKVSCKASGYTFTSYWITWVRQAPGQGLEWMGDIYPGSGNTNYNEKFKTRVTITADKSTSTAYMELSSLRSEDTAVYYCAKEGGLTTEDYALDYWGQGTLVTVSS VL: EIVLTQSPATLSLSPGERATLSCRASKNVSTSGYSYMHWYQQKPGQAPRLLIYLASNLESGIPPRFSGSGYGTDFTLTINNIESEDAAYYFCQHSRELPFTFGQGTKVEIKR | 10.2 | 0.433 |  |  | 
